Where no end group is shown, it is not given here.
Assays:
Test in all cases: FP
[1] = biological target: IMPα1 major site mutant D192K (human)
[2] = biological target: IMPα1 minor site mutant E396R (human)
[3] = biological target: human importin α1 lacking the importin-β binding domain (hIMPα1ΔIBB) (human)

B1: HaHV1 UL36h NLS peptide (residues 1491-1500), FITC/Ahx-labelled (peptide)
peptide: ETKKRRRILE
modifications: not fully specified (N-terminus); also: FITC/Ahx-labelled, position not given here
Q: Which results are given for B1?
A: Kd [1]: 3550 nM; Kd [2]: 1760 nM; Kd [3]: 362 nM

— PMC12474298 (2025)
